In the supplement of paper PMC9170038:

Tested on: MS2 coat protein
Assay: apparent KD of MS2 coat protein; designed switch direction (-1 OFF switch, 1 ON switch): -1; higher = weaker reporter binding
Summary of the method: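 Transcription of designed RNA switches on Illumina chips was done by stalled E. coli RNA polymerase. SNAP-549-labelled MS2 coat protein was then titrated in doubling steps from 0.7 or 1.5 nM to 3 µM, with steps of 0.8–1.5 h at the lowest and 10–20 min at the highest concentration. The per-design median over clusters of curve-fitted normalised fluorescence is reported as apparent KD.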

[1] = input ligand: microRNA oligo, concentration not stated
[2] = Eterna round: R95, input ligand: microRNA oligo, concentration not stated
[3] = Eterna round: R95, input ligand: FMN 200 uM
[4] = Eterna round: R95, input ligand: none

Sequence | apparent KD of MS2 coat protein (input ligand: FMN 200 uM) | apparent KD of MS2 coat protein (input ligand: none) | apparent KD of MS2 coat protein [2] | also measured
ACCAUUACCACACCCUCUAUACAUGAGGAUCACCCAUGUUCUGAGGAUAUCAUCGCUCGCCGCGUUGAGAAGGCAGAGCAUUAA [Tiisri] (Eterna round: R96, puzzle: Exclusion NG 3) | 50.8 nM | 15.1 nM | – | apparent KD of MS2 coat protein [1]: 9.21 nM
CUGUUCCAUGUAGGAUAUGCAUAUUCUCAUUAUGCAGAAGGACAUGAGGAUCACCCAUGUAUGUUAUUAUCAUAUGUUACAUGU [Design 4] (Eterna round: R96, puzzle: Exclusion NG 1) | – | – | – | apparent KD of MS2 coat protein [1]: 27.2 nM
GGAUAAAACUGAGGAUAUGCGUAUCGCUAGCGAGCAGAAGGCAGACAUGAGGAUCACCCAUGUGAGUUCUCGAUAAGAAACACG [Prohibition 59 - Jieux - Exclusion NG 1] (Eterna round: R96, puzzle: Exclusion NG 1) | 145 nM | 57.7 nM | – | apparent KD of MS2 coat protein [1]: 54.8 nM
UAGACCGAUGUUAGGAUAUCUGGUCGAGAAAGAAAAGAGAAGGAACAUGAGGAUCACCCAUGUACCCGGGUAAC [Laisbebi] (puzzle: Brourd's mod of Exclusion 4) | – | – | 16.7 nM | –
CUUUUGUGAGGAUAUUGGUAGUAAAUAAAUAAAAUUACUACUGAGAAGGCACAUGAGGAUCACCCAUGUUCCUC [salish99_ex4_r3_070] (puzzle: Exclusion 4) | – | – | 30.7 nM | –
ACUCGACAUGAGGAUCACCCAUGUGAGGAUAUGGCCUGUAUGGCGUGAGCUGGCUCUGUCAGAAGGCGCGUGGG [salish99_ex1_r4_046] (Eterna round: R97, puzzle: Exclusion 1) | 55.5 nM | 59 nM | – | –
AAAAUAAAGAUGCCUUUAAACAUGAGGAUCACCCAUGUGAGUAAGGAUAUCGGAACCAAUCGCGACGAGAAGGUACUCGCGUGU [Relela] (Eterna round: R96, puzzle: Exclusion NG 3) | 12.1 nM | 15.7 nM | – | apparent KD of MS2 coat protein [1]: 11.1 nM
AAUACACAUGAGGAUCACCCAUGUCAGGAUAUGCGCAGACAGACAGACAGACAGACGAGCAGAAGGGAUAGGAA [Excls1-IV] (puzzle: Exclusion 1) | – | – | 67.5 nM | apparent KD of MS2 coat protein [3]: 54 nM; apparent KD of MS2 coat protein [4]: 49.3 nM
UUCUUGGCAGGAUAUGCUUUUUUAGACAUGAGGAUCACCCAUGUGAUGAUUAUUGGUUUUGCAGAAGGGCCUUAAU [JR_E5_Sub041] (puzzle: Exclusion 5) | – | – | 49.4 nM | –
UCAUAACAUGAGGAUCACCCAUGUCAGGAUAUGAUACUAUGUACUUCGGUACAUAGUAUCAGAAGGGACAUGCU [Brourd's Ex1-3: 12 (nt 72 G)] (puzzle: Exclusion 1) | – | – | 135 nM | –
GACUGACAUGAGGAUCACCCAUGUAAGGAUAUAGGGAGCGUCGCUCCGCAACCCGCGCCUAGAAGGUACAAGGU [EX1 C.20] (Eterna round: R97, puzzle: Exclusion 1) | 18.2 nM | 21.2 nM | – | –
GGUGGGCUAGGAUAUGCUUUGGGCAAGCAUUCCUUCGAUAAACUUGAGGAUCACCCAAGUAGAAGGAGCUUGCC [salish99_ex2_r4_026] (Eterna round: R97, puzzle: Exclusion 2) | 11.5 nM | 10.6 nM | – | –
ACAUGAGGAUCACCCAUGUCCGUCUGGUCUGUCUCGGCUGUCGAGGAUAUAGCUCGGUAUCCGCGCUAGAAGGCGGGAGUCGGU [Aenatbe mod 93] (Eterna round: R96, puzzle: Exclusion NG 3) | 73.6 nM | 88.5 nM | – | apparent KD of MS2 coat protein [1]: 66.7 nM
GGUGGACAUGAGGAUCACCCAUGUGAGGAUAUCGGCCGGUGCGUGGUGGCUGGCGUCUCGAGAAGGCACAUAGU [Exclusion 1 V68] (puzzle: Exclusion 1) | – | – | 74.9 nM | –
UUUAUGUCAGGAUAUGAGUCGUAGAACAAUAGUACUACGUCUCAGAAGGGACAUGAGGAUCACCCAUGUGCCUC [Fiskers Ex 4 Super Stable 44 mod 26] (puzzle: Exclusion 4) | – | – | 35.7 nM | –
UGUUGUCGCGUAGGAUAUGCAUGAGGAUCACCCAUGCAAUUAGAGUUAACAUGAGGAUCACCCAUGUAGAAGGGCGGGACAACU [pwkr exNG2 2xF5 1xFMN.7] (Eterna round: R96, puzzle: Exclusion NG 2) | 62.8 nM | 51.2 nM | – | apparent KD of MS2 coat protein [1]: 42.2 nM
AAAUCACAUGAGGAUCACCCAUGUGAGGAUAUGAUACUAUGUACUUCGGUACAUAGUAUCAGAAGGCAUAUGGA [Ex1-3: 32] (puzzle: Exclusion 1) | – | – | 22.9 nM | –
UUUAUAUAUGAAGGAUAUACUUAACAUGAGGAUCACCCAUGUGGUGUUGUGAGUGAGUGAGUUUAGUAGAAGGUCAAUUAUUUU [JMF's solution 27] (Eterna round: R96, puzzle: Exclusion NG 2) | 594 nM | 310 nM | – | apparent KD of MS2 coat protein [1]: 237 nM

Sequence | apparent KD of MS2 coat protein (input ligand: FMN 200 uM) | apparent KD of MS2 coat protein (input ligand: none) | apparent KD of MS2 coat protein [2] | also measured
CCGGCGUCAGGAUAUCGUAGCAGGACAUUCAGUCGCGGCUAUGAGAAGGGACAUGAGGAUCACCCAUGUCCUCA [Eternabot (Original) Solution 22] (Eterna round: R97, puzzle: Exclusion 4) | 29.5 nM | 21.5 nM | – | –
ACAAGCUUCGAUAUCCUUAACAUGAGGAUCACCCAUGUUCGUCUUAUGAUGGUCUGAUCCCUGAGGAUCGGACCGUU [JL-sv1-2.09 Brourd Mod] (puzzle: Sensor v3, turn-off variant 1) | – | – | 62.3 nM | apparent KD of MS2 coat protein [3]: 40.9 nM; apparent KD of MS2 coat protein [4]: 40.4 nM
UUAUAGUAUGUAGGAUAUCGGUCAGUUUCUGAUCGAGAAGGACAUGAGGAUCACCCAUGUAAGGCUACCGGUUUCUGGUGGCCG [JL ENG1 3.53] (Eterna round: R96, puzzle: Exclusion NG 1) | 122 nM | 26.1 nM | – | apparent KD of MS2 coat protein [1]: 16.5 nM
AUUAUUUAAGUCAGGAUAUCGUAUUUAUUUAAAUACGAGAAGGGACAUGAGGAUCACCCAUGUAAUAAAUUUUU [JMFs Solution 3] (puzzle: Brourd's mod of Exclusion 4) | – | – | 17.2 nM | –
UUCACGUCAGGAUAUCCAAAGUUCCGAAAUAACGGUACUUUGGAGAAGGGACAUGAGGAUCACCCAUGUCCUCG [LRO-Excl4-17-Nando 22 Mod] (Eterna round: R97, puzzle: Exclusion 4) | 40.3 nM | 22 nM | – | –
AGGUGUAGAGGAUAUACUGCAAAGCACAUGAGGAUCACCCAUGUCCCUCUAUGGGAUUAUGUAGAAGGCUACACCA [Omei Ex5 C6] (Eterna round: R97, puzzle: Exclusion 5) | 17.5 nM | 20.2 nM | – | –
AAUAGCUGAGGAUAUACAUGAGGAUCACCCAUGUAUUAGUAGGCUGGGAAUAAAUCGUGUAGAAGGCAGGAUGA [Ceerge] (puzzle: Exclusion 3) | – | – | 16.7 nM | –
AAUAACAGAGGAUAUACUAUUUUAUGUAUUUAUUAUUUUGAACAUGAGGAUCACCCAUGUAGAAGGCUGAGUAA [JMF 35] (puzzle: Exclusion 2) | – | – | 25.3 nM | –
GGUGCUGGCGCGUCGGUGUUGGUGCAAUAAGCUUGUGAAACAUGAGGAUCACCCAUGUCCUCAUAGGCUCGUCUUGU [salish99_TOv2_r2_088] (puzzle: Sensor v3, turn-off variant 2) | – | – | 544 nM | apparent KD of MS2 coat protein [3]: 16.4 nM; apparent KD of MS2 coat protein [4]: 14.4 nM
GCCGAAAAAGUGAGGAUAUACCUAUGGAUACAUAGGUAGAAGGCACAUGAGGAUCACCCAUGUAUCCUAACGGC [Eli bmx4 4.28] (Eterna round: R97, puzzle: Brourd's mod of Exclusion 4) | 362 nM | 29 nM | – | –
GCAGCAUAGUGUAAUAACACAAUACAUGAGGAUCACCCAUGUGAGGAUAUGGACUGGAUUACAGUCCAGAAGGCACAAAGCUGC [Zipper Style 2] (Eterna round: R96, puzzle: Exclusion NG 3) | 19.9 nM | 21.1 nM | – | apparent KD of MS2 coat protein [1]: 13.3 nM
GCCAGGUGAUUCGGCCAUGACAUGAGGAUCACCCAUGUAACAAUCUAGCAAGCAAACAAGGCCGUCGUGUAGGUAUU [Rigeusarla] (Eterna round: R96, puzzle: Sensor v2, turn-off variant) | 78 nM | 76.7 nM | – | apparent KD of MS2 coat protein [1]: 61.1 nM
AAGAAACAUGAGGAUCACCCAUGUGAGGAUAUGGCCCGCCCGGCGUGAGCUGGUUUUAUCAGAAGGCACAAAGG [salish99_ex1_r4_015] (Eterna round: R97, puzzle: Exclusion 1) | 39.4 nM | 44.6 nM | – | –
GGAUUUUCUGAGGAUAUUGCAUCACCCGAUUUAUAAGAAGGCAGAACAUGAGGAUCACCCAUGUGGGUCUCUAG [Bingo-Bango-26] (Eterna round: R97, puzzle: Exclusion 6) | 30.6 nM | 24.5 nM | – | –
CCGGAAAUAGAGGAUAUAGGACUGGAUACAGUCCUAGAAGGCUAUACAUGAGGAUCACCCAUGUGUCCUACCGG [Fiskers Ex 6 - 63] (puzzle: Exclusion 6) | – | – | 14.1 nM | –
UAAAAGCGGAAGGAUAUGUGUCUAAAGUCUGUAGCAGAAGGUCCGACAUGAGGAUCACCCAUGUGACCUGGUGC [Biatceis] (puzzle: Exclusion 6) | – | – | 10.3 nM | –
GCACAGGCAGGAUAUACAUGAGGAUCACCCAUGUGAUCCCUUAGGUACAAAAGUACAAGUAGAAGGGCCUGUGC [Omei Ex3 Model Bachelor's Dilema v45] (Eterna round: R97, puzzle: Exclusion 3) | 146 nM | 1460 nM | – | –
CUUCGUAUAGAGGAUAUAGGUUACUGCGGUAUCCUAGAAGGCUGUACAUGAGGAUCACCCAUGUACUUCAGAUC [Exclusion 6 - B - 13:c] (puzzle: Exclusion 6) | – | – | 12.6 nM | –
